# Measured values reported in the nanobody polyreactivity screen of Harvey et al. (2022).
# Assay: yeast display, Sf9 membrane polyspecificity reagent, FACS + sequencing; frameworks hold sequencing errors
# Outline: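 Galactose induction of a Saccharomyces cerevisiae BJ5465 synthetic nanobody display library ran 36–48 hours. The cells were then stained for 1 hour at 4 °C with 10% biotinylated, detergent-solubilized Sf9 membrane reagent, pulled down on streptavidin microbeads and FACS-sorted into low and high (top ~1%) gates on expression and reagent-binding fluorescence. Labels for polyreactivity follow the gate of origin.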
row,Sequence,polyreactivity (PSR sort gate)
1,QVQLEESGGGLVQAGGSLRLSCAASGFTFSGYDMGWYSPAPGKERELVAGISYGGVSTTYADSVKGRFTISRDNAKNTVYVQMNSLKPEDTAVYYCNAEWTSFDWGQGTQVTVSS,low polyreactivity
2,QVQLVESGGGLVQAGGSLRLSCAASGFIFTKYTMGWYRQAPGKERELVADITGRGTSTYADSVKGRFTISRDNAKNTVYLQMNSLKPEDTAVYYCAAVGWFADFLFSDINGYYWGQGTQVTVSS,low polyreactivity
3,QVQLVESGGGLVQAGGSLRLSCAASGFTFWAYAMGWYRPAPGKERELVARISGSGGRTYYADSVKGRFTISRDNAKNTVYLQMNSLKPEDTAVYYCAARRYYYPVGYDYWGEGTQVTVSS,high polyreactivity
4,QVQLVESGGGLVQTGGSLRLSCAASGSIFGEYAMGWYRQAPGKEREFVADITWSDGSTYYADSVKGRFTISRDNAKNTVYLQMNSLKPEDTAVYYCAADSVLDRPVLYLWPWYLGDYWGQGTQVTVSS,low polyreactivity
5,QVQLVESGGGLVQAGGSLRLSCAASGFTFGYNAMGWYRQAPGKERELVAVINKSGGSTYYADSVKGRFTISRDNAKNTVYLQMNSLKPEDTAVYYCAATYNGWKRYYYWGQGTQVTVSS,high polyreactivity
6,QVQLVESGGGLVQAGGSLRLSCAASGSIFYRYAMGWYRQAPGKERELVAVISTGGSTYYADSVKGRFTISRDNAKNTVYLQMNSLKPEDTAVYYCNVLYYSRYAPYGRYGYWGQGTQVTVSS,high polyreactivity
7,QVQLVESGGGLVQAGGRLRLSCAASGITFTFNAMGWYRQAPGKERELVAAITWSGGSTIYADSVKGRFTFSRDNAKNTVYLQMNSQKPEDTAVYNCARDTELYVRWLDYWGQGSQVTVSS,low polyreactivity
8,QVQLVESGGGLVQAGGSLRLSCAASGPIFRGYAMGWYRQAPGKERELVARITSGGRTYYADSVKGRFTISRDNAKNTVYLQMNSLKPEDTAVYYWATVGRGYDERHNYWGQGTQVTVSS,high polyreactivity
9,QVQLVESGGGLVQAGGSLRLSCAASGRIFFTNAMGWYRQAPGKERELVATISSSDGSTYYADSVTGRFTISRDNAKNTVYLQMNSLKPEDTAVYYCAARYRSTFYNTYDRVYWGQGTQVTVSS,high polyreactivity
10,QVHLVESGGGLVQAGGSLRLSCAASGSTFDVYAMGWYRQAPRKERELVAVINTSGTRTYYADSVKGRFTISRDNAKNSVYLLMNSLKPEDTAVSYCNAGGNLEMIYWGQGTQVTVSS,low polyreactivity
11,QFQLVESGGGLVQAGGSLRLSCADSVRTLYRNVMVWYRHAPVKERELVAAISLSGGSTYYEDSVKGRFTISRDNANYTVYLQMNSMKPEYTAVYYCAVKRPYCPGEYGYWGQGTQVTVSS,high polyreactivity
12,QVQLVESGGGLVQAGGSLRLTCAASGRIFFYYSMGWYRQAPGKERELVAAIRSGGSTNYADSVKGRFTISRDNAKNTVYLQMYILKPEDTAGYYSAAHPTRYYTPRYYYWGLGTQVTVSS,high polyreactivity
13,QVQLLESGGGLVQAGGSLRLSCAASGRTSYIYSMGWYRKAPGKEREFVADITWSGGSTYYADSVKGRFTISRDNAKNTVYLQMNSLKPEDTAVYYCNADLLSWWGVEYYYWGQGTQVTVSS,high polyreactivity
14,QVQLVESGGGLVQAGGTLRLSCAASGIIFDTYVMGWYRQAPGKERELVAAITRSGGRTRYADTVKGRFTISRYNAKNTVYLQMNSLKPEDTAVYYCAARIPDRQDGYGYWGQGTQVTVSS,high polyreactivity
15,QVQLVESGGGLVQAGGSLRLSCAASGRIFDDYAMGWYRQAPGKEREFVAAISRSGASTYYADSVKGRFTISRDNAKNTVYLQMNSLKPEDTAVYYCAARAGANYRMDYWGQGTQVTVSS,high polyreactivity
16,QVQLVESGGGLVQAGGSLSLSCAASGSIFAGNAMGWYRQAPGKERELVAAIRWSTGSTYYADSVKGRFTISRDNAKNTVYLQMNSQKPEDTAVYYCAATDTTFYGIVRYEFWGQGTQVTVSS,low polyreactivity

row,Sequence,polyreactivity (PSR sort gate)
1,QVQLVESGGGLVQAGGSLRLSCAASGRIFYYYAMGRYRQAPGKERELVAAISWSGGSTYYADSVKGRFTISRDNAKNTVYLQMNSLKPEDTAVYYCAAESRKYREYYYWGQGTQVTVSS,high polyreactivity
2,QVQLVESGGVLVQAGGSLRLRCAASGRIFNRNAMGWYRQAPGKERELVAAITSCGSTNYADSVKGRFTISRDNAKNTVYLQMNSLKPEDTAVYYCNVYYHFFRLKTTYLRYYYWGQGTQVTVSS,high polyreactivity
3,QVQLVESGGGLVQAGGSLRLSCAASGFIFGYYAMGWYRKAPGKERELVAAITSGDGSTYADSVKGRFTISRDNEKNTVYLQMNSLKPEDTAVYYCAAVFRYYTYSGAVRYYYWGQGTQVTVSS,high polyreactivity
4,QVQLVESGGGLVQAGGSLRLSCAASGLTFYYYTMGWYRQAPGKERELVATISRSGTSTNYADSVKGRFTISRDNAKNTVYLQMNSLKPEDTAVYYCAAVLRWRDLFSEYYYWGQGTQVTVSS,high polyreactivity
5,QVQLVESGGGLVQAGGSLRLSCAASGSIFGAYAMGWYRQAPGKERELVAVIRWGGGSTYADSVKGRFTISRDNAKNTVYLQMNSLKPEDTAVYYCNRDKSWADLYSHAYDYWGQGTQVTVSS,low polyreactivity
6,QVQLVESGGGLVQAGGSLRLICAASGSIFVTNGMGWYRQAPGKERELVAAIRWSGDSTYYADSVKGRFTISRDNGKNTVFLLMKSLKPEDTAVYYCAAESFRYIRLNYKYGDYYWGQGTQVTVSS,high polyreactivity
7,QVQLVESGGGLVQAGGSLRLSCAATGSIVYSNTMGWYRQSPGKERELVAAISTSDTSTYYADSVKGRFTISRDNGKNTVYLQMNSLKPQDTAVYYCNAVCSIVLYGYWGQGTQVTVSS,low polyreactivity
8,QVQLVESGGGLVQAGGSLRLSCAASGSTFAYYARGWYRQAPGKERELVASISWRGGSTYYADSVKGRFTISRDNAKNTVYLQMNSLKPEDTAFYYCAAGRFYKWSRSQEYDYWGQGTQVTVSS,low polyreactivity
9,QVQLVESGGGLVQAGGSLRVSCAASGIIFDYYVMGWYRQAPGQERELVAAISRSCDRTNYADSVKGRFTISRDNAKNTVYLQMNSLKPEDTAVYYCAARVSIRGGGYEYWGQGTQLTVSS,high polyreactivity
10,PVQLVESGGGLGQAGGSLRLSCAASGSTFLYSAMGWYRPAPGKERELVAGISASGGSSYYADSVKGRFTISRDYAKNTVYLQMNSLKPEDTAVYYCNATRVVIRHSYDYWGQGTQVTVSS,high polyreactivity
11,QVQLVESAGGLDQAGGSLRLSCAASGSIFYIYAMGWYRQAPGKERELVATISGSGGSTHYADSVKGRFTISRDNAKNSVYLQKNSLKPEDTAVYYCAADVLPYGYYWGQGPQVTVSS,low polyreactivity
12,QVQLVESGGGLVQAGGSLRLSCAASGITFWDYAMGRYRQAPGKERELVAGISTRGGSTYYADSVKGRFTISRDNAKNTVYLQMNSLKPEDTAVYYCAADAQTSFGLGWGSDYDYWGQGTQVTVSS,low polyreactivity
13,QVQLVESGGGLVQAGGSLRLSCAASGFTIGYYAMGWYRQAPGKERELDAAISSGGGSTKYADSVKGRFTISRDNAKNTVYLQMNSLKPVDTAVYYFAKSRLVRGRSSYDYWGQGSQVTVSS,high polyreactivity
14,QVQLVESGGGLVQAGGSLRLSCAASGFTFNYNTMGWYRQAPGKERQLVAAISRSGGSTYYADSVKGRITISRDNAKNTVYLQMNSLKPEDTAVFYCAKDTYYPSSRYNRYYYWGQGTQVTVSS,high polyreactivity
15,QVQLVESGGGLVQAGGSLRLSCAASGSTFLDNAMGWYRQAPGKERELVAAISSDGSTYYANSVKGRFTISRDNAKNTVYIQMNSLKPEDTAVYYCAAEYRYYGFWYDYWGQGTQVTVSS,high polyreactivity
